Experiment [1] has as its target mouse CD11b I-domain (moCD11b-I) (mouse) (UniProt P05555). Put plainly: BLI. In general terms: Biolayer interferometry detects binding as a change in optical thickness at a sensor tip.
The target in experiment [2] is human CD11b I-domain (huCD11b-I) (human). Put plainly: SAXS.
Experiment [3] concerns the target T1, leukocidin GH (LukGH) wild-type (Staphylococcus aureus USA300 (ST8) …).
T1 chain 1: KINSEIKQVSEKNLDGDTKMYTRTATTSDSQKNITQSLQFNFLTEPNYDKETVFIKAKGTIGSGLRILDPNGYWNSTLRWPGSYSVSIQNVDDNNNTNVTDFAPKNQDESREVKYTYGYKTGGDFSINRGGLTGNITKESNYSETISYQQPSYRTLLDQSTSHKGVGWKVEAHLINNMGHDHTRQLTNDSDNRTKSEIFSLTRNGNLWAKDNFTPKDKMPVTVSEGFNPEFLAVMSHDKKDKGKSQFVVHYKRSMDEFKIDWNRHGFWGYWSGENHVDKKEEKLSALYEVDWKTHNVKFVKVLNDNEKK
T1 chain 2: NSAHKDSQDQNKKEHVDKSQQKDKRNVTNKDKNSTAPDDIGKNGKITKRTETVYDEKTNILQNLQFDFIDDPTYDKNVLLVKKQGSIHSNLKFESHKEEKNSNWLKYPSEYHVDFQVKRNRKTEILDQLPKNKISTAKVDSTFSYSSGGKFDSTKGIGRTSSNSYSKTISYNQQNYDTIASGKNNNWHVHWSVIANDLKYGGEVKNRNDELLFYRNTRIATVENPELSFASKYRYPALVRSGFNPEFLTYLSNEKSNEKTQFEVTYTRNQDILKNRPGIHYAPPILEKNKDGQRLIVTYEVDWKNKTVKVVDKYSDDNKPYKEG
Put plainly: SAXS.

This is an account of results in article PMC6955338 (Proceedings of the National Academy of Sciences of the …, 2019).

Sequence of mouse CD11b I-domain (moCD11b-I) (mouse) (P05555 143-337): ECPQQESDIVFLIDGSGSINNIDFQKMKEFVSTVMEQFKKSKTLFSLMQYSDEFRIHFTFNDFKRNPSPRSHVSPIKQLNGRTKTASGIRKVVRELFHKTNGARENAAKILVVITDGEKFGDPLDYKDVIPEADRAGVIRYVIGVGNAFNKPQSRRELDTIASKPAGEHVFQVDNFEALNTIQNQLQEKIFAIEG

LukGH^K319A (complex): in experiment [1], the Kd – broadly, the constant that tells how readily two partners part at equilibrium – was found to be 63 nM. For the molecule “leukocidin GH (LukGH) wild-type (complex)”, the stoichiometry N – broadly, a count of units in the complex or per binding partner – in experiment [2] is 1. In experiment [1], this molecule registered a Kd of 1000 nM.

B1: Fab of αLukGH-mAb#5.H1H2 (Fab, V domains shown)
VH: ELQLQESGPGLVKPSETLSLTCTVSGGSISSGSYYWDWIRQPPGKGLEWIGNIYKSGSTYYNPSLKSRVTISVDTSKNQFSLKLSSVTAADTAVYYCARERGMHYMDVWGKGTTVTVSS
VL: DIQMTQSPSSLSASVGDRVTITCRASQSINSYLNWYQQKPGKAPKLLIYAASSLQSGVPSRFSGSGSGTDFTLTISSLQPEDFATYYCQQQFDPPFTFGGGTKVEIK
With B1, the binding result in experiment [3] is on record as “binds”.
